Laboratory results: patent publication US20090010911A1, “METHODS AND COMPOSITIONS FOR AFFECTING CYCLOPHILIN A REGULATION OF KINASES IN MODULATING CELLULAR ACTIVITIES” (IOWA STATE UNIVERSITY RESEARCH FOUNDATION, INC., priority 2007, published 2009)

T1: Itk kinase domain (Mus musculus, UniProt Q03526)
T1 construct: Purified 0.5 μM FLAG-tagged Itk kinase domain (Itk KD) immobilized on an anti-FLAG-resin; made in house; host or cells: Sf9 insect cells (baculovirus)
T1 sequence (Q03526 368-620 limits assumed): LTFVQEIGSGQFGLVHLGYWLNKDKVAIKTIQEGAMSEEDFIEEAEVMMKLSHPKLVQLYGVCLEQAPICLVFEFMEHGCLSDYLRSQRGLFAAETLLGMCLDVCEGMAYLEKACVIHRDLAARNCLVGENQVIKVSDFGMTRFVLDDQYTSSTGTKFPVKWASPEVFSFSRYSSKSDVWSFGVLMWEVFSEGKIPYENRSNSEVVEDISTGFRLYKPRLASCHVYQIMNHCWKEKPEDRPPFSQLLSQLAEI


Molecular target: T1, Itk kinase domain
Assay: Pull-down assay of SH2 domains with Itk kinase domain
Format: binding
Details: purified tagged proteins
Experimental: 3(a) Empty anti-FLAG resin (lane 1) or purified FLAG-tagged Itk kinase domain (Itk KD) immobilized on an anti-FLAG-resin (lanes 2 and 3) were incubated with purified myc-tagged control protein (lane 2) or myc-tagged Itk SH2 domain (lanes 1 and 3) in a pull-down assay. […] 3(b) Purified FLAG-tagged Itk KD (lane 1) was incubated with GST (lane 2) or GST-PLCγ1 C-terminal SH2 domain (GST-PLCγ1 SH2C) (lane 3) each immobilized on glutathione beads in a pull-down assay. […] One μM Itk 32 (lanes 1 and 3) or Itk 32 (R265K) (lanes 2 and 4), were incubated with 250 nM FLAG-tagged full-length Itk in an in vitro kinase assay. Lanes 1 and 2 are no enzyme control. […] One, 3, 5 and 10 μM PLCγ1 SH2C-Y783- (d) or PLCγ1 SH2C(R964A,R696A)-Y783- 3(e), were subjected to phosphorylation by 1.2 μM full-length FLAG-tagged Itk. Lanes 5 and 6 (containing 1 and 10 μM substrate, respectively) are no enzyme controls. Coomassie stain of the gels and anti-FLAG blots (bottom panels) show protein levels. (f & g) Interaction between the SH2 domain and Itk kinase domain is independent of the phosphorylation status of the kinase domain. […] Itk KD that is co-expressed with Lck but also pretreated with alkaline phosphatase is not phosphorylated (lane 3). […]

Row | Molecule | interaction with Itk kinase domain (pull-down)
1 | PLCγ1 SH2C domain: isolated carboxy-terminal SH2 domain of PLCγ1 (protein) QTNAHESKEWYHASLTRAQAEHMLMRVPRDGAFLVRKRNEPNSYAISFRAEGKIKHCRVQQEGQTVMLGNSEFDSLVDLISYYEKHPLYRKMKLRYPI | interacts directly
2 | Itk SH2 domain: isolated exogenous SH2 domain of Itk, purified from bacteria (protein) EWYNKSISRDKAEKLLLDTGKEGAFMVRDSRTPGTYTVSVFTKAIISENPCIKHYHIKETNDSPKRYYVAEKYVFDSIPLLIQYHQYNGGGLVTRLRYPVCSWRQKA | interacts directly
